Assays:
MS2 coat protein [1] = test: apparent KD of MS2 coat protein, switch OFF state (with FMN for OFF switches, without FMN for ON switches); designed switch direction (-1 OFF switch, 1 ON switch): 1; higher = weaker reporter binding; settings: FMN input: 0 or 200 uM; Eterna round: R93 (includes R88 designs)
Summary of the method: (§1)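 Illumina sequencing clusters were used for on-chip transcription of designed RNA switches. Titration with SNAP-549-labelled MS2 coat protein followed, in twofold steps from 0.7 or 1.5 nM to 3 µM in 100 mM Tris-HCl pH 7.5, 80 mM KCl, 4 mM MgCl2, without or with constant ligand. Apparent KD is each design's median of fits to normalised cluster binding curves.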

MS2 coat protein [2] = test: apparent KD of MS2 coat protein, switch ON state; designed switch direction (-1 OFF switch, 1 ON switch): 1; higher = weaker reporter binding; settings: FMN input: 0 or 200 uM; Eterna round: R93 (includes R88 designs)
Summary of the method: as §1

| Sequence | apparent KD of MS2 coat protein (MS2 coat protein [1]) [nM] | apparent KD of MS2 coat protein (MS2 coat protein [2]) [nM] |
| --- | --- | --- |
| AAGAAAGUUUACGAGGAUAUGUUCCGCAGAACAUGAGGAUCACCCAUGUGAACAAGAAAGGCGACGCAGAAGGCGUGAGCAAAGA [Anvedi] | 105 | 35.9 |
| AGGAAACAUGAGGAUCACCCAUGUAAAAAUAUGGGAGGAUAUGCGAAAAGAAACAAAGAAGCAGAAGGCCUAAAAA [75%, Ex sub1, 21] | 66.9 | 21.9 |
| AGGAAACAUGAGGAUCACCCAUGUAUAAAAAUGGAAGGAUAUACUAAGACGAAAGUCAUAGUAGAAGGUCUAAAAA [76%, Meechl, 10] | 20.7 | 16.6 |
| GGAAGACAUGAGGAUCACCCAUGUGGGAUUAUGGGAGGAUAUACAAAGACGAGAGUCAGAGUAGAAGGCCUAGGAA [salish99-ss1-120(!)] | 79.1 | 28.6 |
| UAUCAUUACACGAAGGAUAUCGAUAAUUGAACAUGAGGAUCACCCAUGUGCCAUUCUUUACAGUUCGAGAAGGUCGAGGGUGAAG [JR_SS002_Sub708] | 83.5 | 72.7 |
| AUAUGAGCUAUUGAGGAUAUCCAUAACAAGACAUGAGGAUCACCCAUGUAAUCAAAACAAUAAUGGGAGAAGGCAAUAGCUCAAU [SS 2 M48] | 44.1 | 36.7 |
| GGCUGCAAUUAUGAGGAUAUGUUUGGAUGAACAUGAGGAUCACCCAUGUGGCGAUAGCCGUCUAUGCAGAAGGUGUAGUGGCGGC [Ertion] | 59.1 | 25.9 |
| AGGAAACAUGAGGAUCACCCAUGUAAAAGGUGGUUAGGAUAUGCGAUAAUAAAAAUAAUAGCAGAAGGGACAAGAA [Same State of Confusion3 mod Fisker] | 416 | 215 |
| CAUCAUGCGCCUAAGGAUAUGUCUCACAAGACAUGAGGAUCACCCAUGUAGCCAAAAUAAACGAUGCAGAAGGUGGAGCACAUGC [Atrexe] | 602 | 271 |
| AACACGCGGGCGCAGGAUAUGUCGCUGGUGACAUGAGGAUCACCCAUGUAUACCAUUGCGGUUGAGCAGAAGGGUGAGAUGCGUG [Beisesanxe] | 59.5 | 15.9 |
| AAACCACAUGAGGAUCACCCAUGUAAAAUAAUGGGAGGAUAUACUAGAAGAAACAAAAUAGUAGAAGGCUCAAAAA [75%, Ex sub1, 34] | 97.3 | 28.2 |
| GGGAGACAUGAGGAUCACCCAUGUGAGAAGAGGCGAGGAUAUCGAAAGAAAGAAGAGAAACGAGAAGGCGCGAGUC [salish99-SS1-062] | 63.4 | 45.2 |
| GAAAAACAUGAGGAUCACCCAUGUGAUAACAUGGGAGGAUAUACGAGGACGAUAGUCAAGGUAGAAGGCCUAAAAG [Garnet 60] | 24.6 | 132 |
| GAAAAACAUGAGGAUCACCCAUGUAGAAAUAUGGGAGGAUAUACGAAGACGAAAGUCGAGGUAGAAGGCCUAAAAG [Garnet 54] | 98 | 34.7 |
| GAAAAACAUGAGGAUCACCCAUGUAGAGAUAUGGGAGGAUAUACGAAGACGAAAGACGAAGUAGAAGGCCUAAAAG [Garnet 58] | 180 | 35.1 |
| AAAUAAAUGACUGAGGAUAUAUCGAUGUGUACAUGAGGAUCACCCAUGUGUGAAUAAAAAGGGUGGUAGAAGGUAGUCAACAAAC [Mod 17 of Pariah 4 by Hyphema in Round 1] | 66.7 | 76.9 |
| GACCGACAUGAGGAUCACCCAUGUCGGAAAAGGCAAGGAUAUGGGCGGUACCAAUUUCGGUCAGAAGGUGCAAAAG [Aatisri] | 14.6 | 12.4 |
| UUUAAUUAUACGAAGGAUAUCGGUAAUUAGACAUGAGGAUCACCCAUGUUAUAUGGUUAAAUAUUCGAGAAGGUCGAGGGUGAAA [JR_SS002_Sub506] | 32.1 | 30.2 |
| AAGAGACAUGAGGAUCACCCAUGUAGGAUUAUGGGAGGAUAUACAAAGACGAGAGUCAGAGUAGAAGGCCUAGGAG [salish99-ss1-131(!)] | 57.4 | 23.2 |
| CGCCAAUUGGCACAGGAUAUGAGCAUGCUCACAUGAGGAUCACCCAUGUGAUUACCAACGCAAAAUCAGAAGGGUGCCCUCGUCA [Beanza] | 92.6 | 69 |
| AAUAAUUAUAACGAGGAUAUCCGUAAUAAGACAUGAGGAUCACCCAUGUAAUAAGGGUAAAUAAAGGAGAAGGCGUAGGGUGAAA [JR_SS002_Sub002] | 61.1 | 44.3 |
